Measurements published in the DeepSol protein solubility set.

Assay: soluble on expression in E. coli; label from the status in PepcDB or PDB records
For “GSSLASQGQNLSTVLANLTPEQQKNVLGERLYNHIVAINPAAAAKVTGMLLEMDNGEILNLLDTPGLLDAKVQEALEVLNRHMNV”, the “soluble on expression in E. coli” value was “soluble”.
For “MTLLTVKHLTITDTWTDQPLVSDVNFTLTKGETLGVIGESGSGKSITCKSIIGLNPERLGVTGEIIFDGTSMLSLSESQLKKYRGKDIAMVMQQGSRAFDPSTTVGKQMFETMKVHTSMSTQEIEKTLIEYMDYLSLKDPKRILKSYPYMLSGGMLQRLMIALALALKPKLIIADEPTTALDTITQYDVLEAFIDIKKHFDCAMIFISHDLTVINKIADRVVVMKNGQLIEQGTRESVLHHPEHVYTKYLLSTKKKINDHFKHVMRGDVHD”, the “soluble on expression in E. coli” value was “not soluble”.
For “MAEPLQPDPGAAEDAAAQAVETPGWKAPEDAGPQPGSYEIRHYGPAKWVSTSVESMDWDSAIQTGFTKLNSYIQGKNEKEMKIKMTAPVTSYVEPGSGPFSESTITISLYIPSEQQFDPPRPLESDVFIEDRAEMTVFVRSFDGFSSAQKNQEQLLTLASILREDGKVFDEKVYYTAGYNSPVKLLNRNNEVWLIQKNEPTKENE”, the “soluble on expression in E. coli” value was “soluble”.
In the case of “MGSDKIHHHHHHMSASLILTLSCEDKPGIVARVTGNLFEAGGNIREAQQFDDPLSGRFFMRVVFDPAEGSVEHYRAAFAAVADHYAMEWNLRDTTVKRKVILMVSKFDHCLGDLLYRTRIGELPMDVVAILGNHPKEALNISLIGDIPYHHLPITKDTKPQQEAEVKRIVTETGAELVVLARYMQILSDDLAAFLSGRCINIHHSFLPSFKGAKPYHQAHARGVKMIGATGHYVTADLDEGPIIHQDVETVTHADSPDDLVRKGRDVERRVLAEAVRLHLEDRALVNGNKTVVFKS”, the “soluble on expression in E. coli” value is reported as “not soluble”.
With “MTVTLTCRFKLELSKDQKQQFLDIATAYTNAVNYVLEQNLKDKSTNVKKLHRLYYKTIREDFDLPAQMAINVNRDVSAMYKTLWAQFKELKRRKPDSKAVKKFWDKPPKRKSLIVKYTYNRTASFKKINGEWHASLSTLQGRIKWIPMKGWSKHFEYLKSCKIGDPILTYDKSSKTFFLLVPVTLEVQEHQPKEIVGVDVGERHIAAVASTKGTRYLIDLPEEFKQRKQHYQRLRSELMSKGTRSAKRKLARISRREKRFTENVLHIIAKKLTTSHPGARFVLEDLTQIRANRITYRGKDKEARRQSEQWPFASLQQKIEYKAKLYYGVQSEKVDPSYTSQTCPRCGHVSKENRPDHGERFVCQSCGYEEHADIVGAINIALRVLAKDQQVNLEKLLGAVVSRPDAPRLGLEHHHHHH” the “soluble on expression in E. coli” value was “soluble”.
For “MGSDKIHHHHHHMILLVGGEKGGSGKSCLAQNIAVHISQKHDANVLMVDCDPQRTTSDWIQARNNDPSLKAINCIQLYGKIRNDLLSLNDRFDYVIVDCGGQDNLAMRAAMSVATYVVIPLRPKRRDLKTLPHMEDMLSTCKMVNPKMIAAIVITQCPALPSQGKRILEAKEVVESFGLRALNSVTFSRNIYDDSEESGSSVLEIDPSGKAADEIRAIADELFAIPPENSYEFN”, the “soluble on expression in E. coli” value was “not soluble”.
In the case of “MSLSWEYEYYPHSLFCHHKEREGMHYIEGAYWSAEPDLPYLHKRKILMLVEDVWLLVDDIRCQGQHEALTQFILDKDVTYQDGKINQLRLWSEVDFDLEDTIISPKYNELERSSKLTKRQFFENQMLDYTIIAHESFEIIRHSVYQTDDREVENALAFEVKNDETDKLILLLSEDIRVGEKLCLVDGTKMRGKCLVYDKINERMIRLQCEGHHHHHH”, the “soluble on expression in E. coli” value is reported as “soluble”.
For “MGSSHHHHHHGKTIFVIVPTNEEQVAFLEALAKQDELNFDWQNPPTEPGQPVVILIPSDMVEWFLEMLKAKGIPFTVYVEEGGSENLYFQGGGGGGRRGFTETVSPVAGFHIFTLFLLRELIEPWSQGQVRAQAARAREAQRRSFTTDIAMQYREKLD”, the “soluble on expression in E. coli” value was “soluble”.
With “SRMVLRGLLSEHPKKQMIPVIIYGAGRSGRQLLEAVKQMREYSAAAFVDDDPKLWHTVIYDLAVYQPDAIAFLIERYGVEKILLAIPGATQEQRRRIINKLEAYPCEVLTIPGMKDLMDGKISIGTLKKISVSDLLGRDSVAPDDRLMSADIEGKTVMVTGAGGSIGSELCRQIIRRRPEKLLLFELSEFALYAIEKELRETCIQKRLDTEILPFLGSVQNRTLLE” the “soluble on expression in E. coli” value was “not soluble”.
With “MVKSVGCKNLSLDVKKAIVAGFEQGTPTKMLALQIQRSPSTIWKVIKKYQTEKSVALRISPGRPRVTTHRMDRNILRSAREDPHRTATDIQTIISSPNEPVPSKRTVRRRLQQAGLHGRKPVKKPFISKKNRMARVAWAKAHLRWGRQEWAKHIWSDESKFNLFGSDGNSWVRRPVGSRYSPKYQCPTVKHGGGSVMVWGCFTSTSMGPLRRIQSIMDRFQYENILETTMRPWALQNVGRGFVFQQDNDPKHTSLHVRSWFQPCRVHLLDWPSQSPDLNPIEHLWEELERRLGGIRASNADAKFNQLENAWKAIPMSVIHKLIDSMPRRCLAVIDANGYATKY” the “soluble on expression in E. coli” value was “not soluble”.
In the case of “MGSDKIHHHHHHMFSSEVIASFNELEMSIYNYICQHAEKVAYMRIRELADETHVSTATILRFCRKVDCDGFSEFKVKLKMHLEKEKKAPIKSSQHAIAEFFERAFRGDLEERISEAAALVADAENVIFIGIGSSGILAEYGARYFSALGKLSMYIKDFSYPIHSKLRQNSVTIALSVSGETHFTITQVNQLKQEGSKIISITNNKFSTIAKVADVNLSYYVSEEFFEKANITTQVPVVYILEAMARELYKLQG”, the “soluble on expression in E. coli” value is reported as “not soluble”.
For “MNGKEIGEKNSKKYSFEVDSRSVYKCVQCGTCRSVCPVFDVVGWESANTRGRMLIIKSLLEGRPPSEDVLPSLASCTTCGICAAKCPAGANPPEVVEAARAQLVKCGVTTEAQLEHHHHHH”, the “soluble on expression in E. coli” value was “not soluble”.
For “MAHHHHHHMLQRLQLFRSTLVNFLEWRNFSDVVHGCYVRVLLEMRSTEENRRESPDNYYIALVKGAQRGPVYSGFSADAVTTEWHIVIELPPCFRSTQNGNVVQLNSISNSPFRQAEYQNWVDMTNETRELSFPSLPQLQFRLGMLEEHKQQALTPEPRRHRNGEDAEAAALREWALEEKRKRITEEIMVTHVKLRRIDQLKALSLEDLQEVEREILDLITGVRISINERSKCMLCHNRICTEICYPCKHQVLCKDCAKSIRGRCPAPKCKTPVQYTFEAFTS”, the “soluble on expression in E. coli” value was “not soluble”.
In the case of “MIRSATKEDGQAIARLVLVILKDMELPILEEVSEEQMIDLLAEATAYPTYRYGYQRILVYEHAGEVAGIAVGYPAEDEKIIDEPLREVFKKHGLAEDVRLFIEEETLPNEWYLDTISVDERFRGMGIGSKLLDALPEVAKASGKQALGLNVDFDNPGARKLYASKGFKDVTTMTISGHLYNHMQKEV”, the “soluble on expression in E. coli” value is reported as “not soluble”.
For “MANLKSLPVGDKAPEVVHMVIEVPRGSGNKYEYDPDLGAIKLDRVLPGAQFYPGDYGFIPSTLAEDGDPLDGLVLSTYPLLPGVVVEVRVVGLLLMEDEKGGDAKVIGVVAEDQRLDHIQDIGDVPEGVKQEIQHFFETYKALEAKKGKWVKVTGWRDRKAALEEVRACIARYKG”, the “soluble on expression in E. coli” value was “soluble”.
In the case of “MGSSHHHHHHMTLNQPEYFTKYENLHFHRDENGILEVRMHTNGSSLVFTGKTHREFPDAFYDISRDRDNRVVILTGSGDAWMAEIDFPSLGDVTNPREWDKTYWEGKKVLQNLLDIEVPVISAVNGAALLHSEYILTTDIILASENTVFQDMPHLNAGIVPGDGVHILWPLALGLYRGRYFLFTQEKLTAQQAYELNVVHEVLPQSKLMERAWEIARTLAKQPTLNLRYTRVALTQRLKRLVNEGIGYGLALEGITATDLRNN”, the “soluble on expression in E. coli” value is reported as “soluble”.
With “MTRTPLTLEQLNALSDDAFTEHFAGVLEHSPHYARRAAAGRPFADVEEVAAAFARAVAADEPGAQVQLIRAHPDLAGKAALAGELTAESASEQTSAGLDRLSPEEYAEFQRLNAAYHERFGLPYVVCVRENTKDTIFEGARRRLTHTQEEEQAAALHEIGRIARLRILDLVQEGRQEKRMDGRLIRIPLEHHHHHH” the “soluble on expression in E. coli” value was “soluble”.
With “GHHHHHHAIAENLYFQSKFLDVECLSELQRKLNDLELTDYRVRCQLEAYSCKPAGFDKKLSKSLEQKLVEQLEASPRVLEGSPVGSLEDQSARKTLINLICTLNAAHQDYDFSSLQLSRLKRVQDVRSLQQHVDSLFELFYRQLGLEFRQFLWENIGQIIRPEECEVYSYLPDYESDPYSASGALWSFCYFFYHKNMKKILFFSCTLSTRLAEDSESTESVDEEDFGKESSGLETPFAMFETVI” the “soluble on expression in E. coli” value was “not soluble”.
For “MNNQLTEITVVRRQSAPRLEFEAAAIYEYPEHLRPFLSEAPALPGVYIFHSESDTLPLYIGKSVNIRSRVLSHLRTPDEATMLRQARRISWICTAGEMGALLLEARLIKEQQPLFNKRLRRNRQLCSLQLSEQKIEVVSARSVDFSHEPNLFGLFANRRAALQSLQNLADEQKLCYGLLGLEPVSRGRACFRFALKRCAGACCGQETPQAHFLRLQASLERLRVVCWPWKGAIALKESRPQMTQFHIINNWLWLGAVPSLDEAATLVRTPAGFDQDGYKILCKPLMSGQYEIIELHTDCRQS”, the “soluble on expression in E. coli” value was “not soluble”.
For “MAHHHHHHMRVALIFGITGQDGSYLSELLLEKNYHVHGVIRRCSSFNTKRIDHIFDKLILHYGDLLDSSNICSLICEIKPNEIYNLAAQSHVKVSFEMPEYTTEATALGTLRILEGIRISKVKNIKFYNASTSELFGKVQCPIQNENTPFYPVSPYAIAKLYAHYITINYRESYNMFCINGILFNHESPRRGETFVTRKITRGIAKIQKKLETSIILGNIDTYRDWGHAKDYVYAMYLMLQQNEADDFVICSNEQHSVREFCEISFSFVNIHIKWIGKGIQEIGVDQNNNVLIKKHEKYFRNCEVNTLLGDCSKAKNILKWEPTYTFTQLVYEMLKCDMQDYNLSMDDYDTCMKKYDTYKMGKKQ”, the “soluble on expression in E. coli” value was “not soluble”.
For “MIDLKELKKYCNHSYLTIRNDKIIVGNKGLARLSKEKMRKIEMDFEIPVVYSRVFEEISERMGRYVSKNNIISPKDKILVGLSGGKDSLALLHLLEPYRRKYGVQIYAVTVDLNINGIRPWTESNKNVKMISEHCKNLNIPHEIIAHDGNVVEMSKILSENTKGIEYSPCFSCSMVRRHVLTNYAKNNFESDSNVKIAIGHTLEDNSDTIMANIFKGNVIKALEPIKNFNKTDVDFKDFKLNLKSCCMIRPMLNVSEEKIVKALVECDIEYYKDKDECPYSRHNGDGIRKKSHEVLKSLEEDVPNIREMIISSILNSIEQYKQK”, the “soluble on expression in E. coli” value was “not soluble”.
For “MRKLMTATAALCACAVTVSAGAAWADADVQPAGSVPIPDGPAQTWIVADLDSGQVLAGRDQNVAHPPASTIKVLLALVALDELDLNSTVVADVADTQAECNCVGVKPGRSYTARQLLDGLLLVSGNDAANTLAHMLGGQDVTVAKMNAKAATLGATSTHATTPSGLDGPGGSGASTAHDLVVIFRAAMANPVFAQITAEPSAMFPSDNGEQLIVNQDELLQRYPGAIGGKTGYTNAARKTFVGAAARGGRRLVIAMMYGLVKEGGPTYWDQAATLFDWGFALNPQASVGSL”, the “soluble on expression in E. coli” value was “soluble”.
In the case of “MSLKNISLAMLARQIGVGVATVDRVLNERGGVSPQTTRKVLQAAREAGLKRILPEEHRFPWQIEVFLSSNDSFFFPQLAQDFAAVADSLGYRRLTLHRTFVPESQPTTLARRIARSCQQRQGIIVFGNDHPAVHDALRRCREAGVPAITLATDLPGADRLCHVGINQLQAGRTAGLMLGRMTPRPGEVLMVSGRQDYSAHRLRIQGFREVLSQRFPHLQLSDVLAGEERREQITRLVEQALCRSRNIVGIYNTGLGNTQIAEALARHRREGDVCWITHERYNTTRQQLAKGSLALTLDQNTRQHAQLAIDLMLRHLESGYQPQTYADGKVDFILYSAENVDEGHHHHHH”, the “soluble on expression in E. coli” value is reported as “soluble”.
In the case of “MISILRRGLLVLLAALPLLANAASTPSAHDLVQDTTTRLLADLAANKEKYKQSPNDFYNALNSIVGPVVDADGISRSIMTVKYSRKATPEQMVRFQENFKRSLMQFYGNALLEYNNQGITVSPAKDESGTRTSVDMQVKGNNGAIYPVSYTLEKINDEWKVRNVIINGINIGKLFRDQFADAMQRNGNNLDKTIDGWAGEVAKAKEVTEDAAQKAAQLEHHHHHH”, the “soluble on expression in E. coli” value is reported as “soluble”.
